Results taken from patent publication US20240279281A1, “Peptide Inhibitors of Interleukin-23 Receptor” (Janssen Pharmaceutica NV, priority 2023, published 2024).
Each block holds one molecule with its values, some of them ahead of it. Starred links: 1 amine or outer side, 2 acyl side, 3 side chain; linkers in the order of their positions; H or OH if unused. Positions of bridges follow the written chain, without caps; N, C: chain ends. Non-standard residues stand in square brackets, D forms with d. Residues, ends and D or L forms follow the SMILES beside them. No end group written: not given here. X5 = 2‑amino‑3‑(3-carbamoyl-1H-pyrazol-4-yl)propanoic acid, NC(=O)c1n[nH]cc1CC(N[*:1])C(=O)[*:2]; X4 = O=C([C@H](Cc1ccc2cc(-c3ccc(N4CCOCC4)cc3)ccc2c1)N[*:1])[*:2]; Trp(7-Me) = Cc1cccc2c(C[C@H](N)C(=O)O)c[nH]c12; AEF = NCCOc1ccc(C[C@H](N)C(=O)O)cc1; 3Pal = N[C@@H](Cc1cccnc1)C(=O)O; Pen = CC(C)(S)[C@H](N)C(=O)O; Thp = NC1(C(=O)O)CCOCC1; Sar = CNCC(=O)O

Key:
IL-23R = biological target: T1, IL-23R (Homo sapiens, UniProt Q5VWK5); assay: IL23R Reporter Assay; assay type: cell-based; conditions: HEK293 cells containing IL-23R, IL-12Rβ1 and STAT-inducible luciferase reporter; 10 ng/mL IL-23; 5 h; read-out: IC50
T1 construct: host or cells: HEK293
T1 sequence (Q5VWK5 24-629): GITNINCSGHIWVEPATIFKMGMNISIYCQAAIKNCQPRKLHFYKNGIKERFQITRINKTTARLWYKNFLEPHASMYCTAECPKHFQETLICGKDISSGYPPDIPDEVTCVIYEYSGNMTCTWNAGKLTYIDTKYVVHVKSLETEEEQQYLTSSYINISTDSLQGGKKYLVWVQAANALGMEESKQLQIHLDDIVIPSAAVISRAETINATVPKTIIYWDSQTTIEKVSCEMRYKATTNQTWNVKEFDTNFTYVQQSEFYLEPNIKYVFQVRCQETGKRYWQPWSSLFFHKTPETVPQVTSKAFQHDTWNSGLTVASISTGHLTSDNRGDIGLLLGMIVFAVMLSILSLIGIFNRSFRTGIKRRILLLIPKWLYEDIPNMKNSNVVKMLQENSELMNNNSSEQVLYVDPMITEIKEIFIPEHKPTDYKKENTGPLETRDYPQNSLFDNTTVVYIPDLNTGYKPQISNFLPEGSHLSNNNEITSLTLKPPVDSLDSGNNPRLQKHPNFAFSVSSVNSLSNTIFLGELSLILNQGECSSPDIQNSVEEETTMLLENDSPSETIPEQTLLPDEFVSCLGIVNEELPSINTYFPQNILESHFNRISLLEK
Experimental: Compounds were serially diluted in 100% (v/v) DMSO) and plated using an Echo acoustic dispenser (Labcyte) into 1536-well non-treated black assay plates (Corning #9146). […] After 5 h at 37° C., 5% CO2, 95% relative humidity, cells were placed at 20° C. and treated with BioGlo reagent (Promega) according to the Manufacturer's instructions. Luminescence was measured on a Pherastar FSX (BMG LabTech).

[1] = biological target: T2, interleukin-23 receptor (IL-23R), Q5VWK5; assay: cell-based or functional assay
T2 chain: T1 sequence (Q5VWK5 24-629)

Molecule: R[Pen]NT[Trp(7-Me)]K(Ac)[Pen][N,N,N‑trimethylethanaminium][2‑amino‑3‑(6-hydroxynaphthalen-2-yl)propanoic acid][Thp]EN[3Pal][Sar] (disulfide 2-7 (inferred); not fully specified; ends not checked) [SEQ ID NO: 436]
- PBMC pSTAT3 IC50 [1]: < 1 nM

Molecule: R[Pen]NT[Trp(7-Me)]K(Ac)[Pen][2‑amino‑3‑(4-(2-aminoethoxy)phenyl)propanoic acid][3‑(6-(1H-pyrazol-4-yl)naphthalen-2-yl)‑2‑aminopropanoic acid][Thp]EN[Thp] (not fully specified (bridges); ends and bridges not checked) [SEQ ID NO: 433]
- PBMC pSTAT3 IC50 [1]: > 1 nM

B3: SEQ ID NO: 85 (peptide)
peptide: K[Pen]NT[Trp(7-Me)]K(Ac)[Pen][2‑amino‑3‑(4-(2-aminoethoxy)phenyl)propanoic acid][2‑amino‑3‑(6-hydroxynaphthalen-2-yl)propanoic acid][Thp]K(Ac)N[3Pal][Sar]
modifications: not fully specified (bridges); ends and bridges not checked; also: K1: lipidated lysine, lipid not given here
- IL23R Reporter Assay IC50 [1]: < 10 nM

Molecule: R[Pen]NT[Trp(7-Me)]K(Ac)[Pen][N,N,N‑trimethylethanaminium][2‑amino‑3‑(6-hydroxynaphthalen-2-yl)propanoic acid][Thp]EN[3Pal][Sar] (disulfide 2-7 (inferred); not fully specified; ends not checked) [SEQ ID NO: 435]
- PBMC pSTAT3 IC50 [1]: < 0.1 nM

B5: SEQ ID NO: 87 (peptide)
peptide: R[Pen]NT[Trp(7-Me)]K(Ac)[Pen][2‑amino‑3‑(4-(2-aminoethoxy)phenyl)propanoic acid][2‑amino‑3‑(6-hydroxynaphthalen-2-yl)propanoic acid][Thp]KN[3Pal][Sar]
modifications: not fully specified (bridges); ends and bridges not checked; also: K11: lipidated lysine, lipid not given here
- IL23R Reporter Assay IC50 [1]: < 10 nM

Molecule: R[Pen]NT[Trp(7-Me)]K(Ac)[Pen][2‑amino‑3‑(4-(2-aminoethoxy)phenyl)propanoic acid][2‑amino‑3‑(6-(3-(trifluoromethyl)-1H-pyrazol-4-yl)naphthalen-2-yl)propanoic acid][Thp]EN[Thp] (not fully specified (bridges); ends and bridges not checked) [SEQ ID NO: 434]
- PBMC pSTAT3 IC50 [1]: > 1 nM

Molecule: R[Pen]NT[Trp(7-Me)]K(Ac)[Pen][2‑amino‑3‑(4-(2-aminoethoxy)phenyl)propanoic acid][2‑amino‑3‑(5-bromonaphthalen-2-yl)propanoic acid][Thp]EN[Thp] (disulfide 2-7 (inferred); ends not checked) [SEQ ID NO: 443]
- PBMC pSTAT3 IC50 [1]: > 1 nM

Continued, values first:

- IC50 (IL-23R): > 100 nM
Molecule: CC(=O)NCCCC[C@@H]1NC(=O)[C@H](Cc2c[nH]c3c(C)cccc23)NC(=O)[C@H]([C@@H](C)O)NC(=O)[C@H](CC(N)=O)NC(=O)[C@@H](NC(=O)[C@@H](CCCNC(=N)N)NC(C)=O)C(C)(C)SSC(C)(C)[C@@H](C(=O)N[C@@H](Cc2ccc(OCCN)cc2)C(=O)N[C@@H](Cc2ccc3cc(-c4ccc(N5CCOCC5)cc4)ccc3c2)C(=O)NC2(C(=O)N[C@@H](CCC(=O)O)C(=O)N[C@@H](CC(N)=O)C(=O)NC3(C(N)=O)CCOCC3)CCOCC2)NC1=O [SEQ ID NO: 432, MeCO-r-Pen(3)-N-T-7MeW-K(Ac)-Pen(3)-AEF-2Nal6(Ph4(NMorph))-THP-E-N-THP-CONH2] (Ac-[dR][Pen]NT[Trp(7-Me)]K(Ac)[Pen][AEF][X4][Thp]EN[Thp]-NH2; disulfide 2-7)

- IL23R Reporter Assay IC50 [1]: < 10 nM
B1: SEQ ID NO: 86 (peptide)
peptide: R[Pen]NT[Trp(7-Me)]K(Ac)[Pen][2‑amino‑3‑(4-(2-aminoethoxy)phenyl)propanoic acid][2‑amino‑3‑(6-hydroxynaphthalen-2-yl)propanoic acid][Thp]KN[3Pal][Sar]
modifications: not fully specified (bridges); ends and bridges not checked; also: K11: lipidated lysine, lipid not given here

- PBMC pSTAT3 IC50 [1]: > 1 nM
Molecule: R[Pen]NT[Trp(7-Me)]K(Ac)[Pen][2‑amino‑3‑(4-(2-aminoethoxy)phenyl)propanoic acid][2‑amino‑3‑(6-hydroxynaphthalen-2-yl)propanoic acid][Thp]EN[X5][Sar] (disulfide 2-7 (inferred); ends not checked) [SEQ ID NO: 440]

- PBMC pSTAT3 IC50 [1]: < 1 nM
B2: SEQ ID NO: 427 (peptide)
peptide: K[Pen]NT[Trp(7-Me)]K(Ac)[Pen][2‑amino‑3‑(4-(2-aminoethoxy)phenyl)propanoic acid][2‑amino‑3‑(6-hydroxynaphthalen-2-yl)propanoic acid][Thp]K(Ac)N[3Pal][Sar]
modifications: not fully specified (residue 1, bridges); ends and bridges not checked; also: Lys1 lipidated (lipid not given here)

- IL23R Reporter Assay IC50 [1]: < 10 nM
B4: SEQ ID NO: 84 (peptide)
peptide: R[Pen]NT[Trp(7-Me)]K[Pen][2‑amino‑3‑(4-(2-aminoethoxy)phenyl)propanoic acid][2‑amino‑3‑(6-hydroxynaphthalen-2-yl)propanoic acid][Thp]EN[3Pal][Sar]
modifications: not fully specified (bridges); ends and bridges not checked; also: K6: lipidated lysine, lipid not given here

- PBMC pSTAT3 IC50 [1]: > 1 nM
Molecule: R[Pen]NT[Trp(7-Me)]K(Ac)[Pen][2‑amino‑3‑(4-(2-aminoethoxy)phenyl)propanoic acid][2‑amino‑3‑(6-(4-methoxyphenyl)naphthalen-2-yl)propanoic acid][Thp]EN[Thp] (disulfide 2-7 (inferred); ends not checked) [SEQ ID NO: 438]
